Reference: paper PMC5700200

Target: FLAG-tagged β1 adrenergic receptor (UniProt P34971)
Experiment: proximity ligation; in situ PLA (Duolink) in HEK293 cells stably expressing FLAG-tagged β1AR or β2AR; 10 μM carvedilol, isoproterenol or other βAR ligands for 5 min, with or without 10 μM propranolol for 30 min; fixed, permeabilised; rabbit anti-β1AR (or β2AR) with mouse anti-Gαi

UniProt P34971, sequence (P34971 whole entry): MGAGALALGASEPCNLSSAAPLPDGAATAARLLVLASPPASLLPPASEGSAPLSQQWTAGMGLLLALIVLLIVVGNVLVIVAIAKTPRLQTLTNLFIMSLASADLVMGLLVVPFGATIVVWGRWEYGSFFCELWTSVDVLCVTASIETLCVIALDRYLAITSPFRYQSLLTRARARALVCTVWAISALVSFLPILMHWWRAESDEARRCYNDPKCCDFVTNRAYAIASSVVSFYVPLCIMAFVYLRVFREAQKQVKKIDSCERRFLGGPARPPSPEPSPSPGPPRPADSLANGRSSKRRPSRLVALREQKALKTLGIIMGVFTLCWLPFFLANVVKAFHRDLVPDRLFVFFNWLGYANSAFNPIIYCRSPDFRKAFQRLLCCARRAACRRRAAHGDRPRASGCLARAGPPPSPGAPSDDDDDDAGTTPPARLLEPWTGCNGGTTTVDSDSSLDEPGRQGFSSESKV

fold increase in the PLA signal after carvedilol over unstimulated cells: > 2 fold
Substance: Gαi (from UniProt P08754 1-354) (natural protein)
